Results reported in US7524668B1, “Crystal of human beta secretase having monoclinic space group symmetry C2 and methods for crystallization thereof” (Elan Pharmaceuticals, Inc., priority 2001, dated 2009).

Target: T1, beta secretase (Homo sapiens, UniProt P56817)
T1 construct: a homogeneous preparation of beta secretase with V^40 as an N-terminus could be made; made in house; host or cells: CHO-K1 cells; secreted, purified, then cleaved in vitro with HIV-1 protease
Assay: beta secretase activity assay by HPLC analysis of the products
Format: biochemical
Conditions: CHO cell derived human beta secretase cleaved at F39-V40 by HIV-1 protease, compared with unprocessed/non-treated enzyme
Description: Cleavage of Beta Secretase by HIV Protease. It was reasoned that a homogeneous preparation of beta secretase with V^40 as an N-terminus could be made if conditions could be found to bring the cleavage to completion. The optimal conditions for cleavage were determined by examining the N-terminal sequence of beta secretase after incubation with HIV-1 protease in various conditions. These included a pH range of 4-7, urea concentrations of 0.5-3.0 M, and time increments of 15 minutes, up to 2 hours incubation at 37° C. […] The processed enzyme was separated from the other components of the reaction mixture by using an affinity column based on the synthetic peptide shown in FIG. 2 and dialysis.
Purified HIV-1 protease treated (and non-treated) beta secretase were assayed for activity by HPLC analysis of the products.

B1: HIV-1 protease treated beta secretase: CHO cell expressed recombinant human beta secretase proteolytically cleaved with HIV protease at the F39-V40 bond (SEQ ID NO:5) (protein)
chain: VEMVDNLRGKSGQGYYVEMTVGSPPQTLNILVDTGSSNFAVGAAPHPFLHRYYQRQLSSTYRDLRKGVYVPYTQGKWEGELGTDLVSIPHGPNVTVRANIAAITESDKFFINGSNWEGILGLAYAEIARPDDSLEPFFDSLVKQTHVPNLFSLQLCGAGFPLNQSEVLASVGGSMIIGGIDHSLYTGSLWYTPIRREWYYEVIIVRVEINGQDLKMDCKEYNYDKSIVDSGTTNLRLPKKVFEAAVKSIKAASSTEKFPDGFWLGEQLVCWQAGTTPWNIFPVISLYLMGEVTNQSFRITILPQQYLRPVEDVATSQDDCYKFAISQSSTGTVMGAVIMEGFYVVFDRARKRIGFAVSACHVHDEFRTAAVEGPFVTLDMEDCGYNIPQTDESHHHHHH
more enzymatic activity than non-treated beta secretase: 10-20%
